How the values were obtained:
Settings in all cases: 285 mM Tris-HCl pH 8.0, 0.14 mg/mL BSA, 1.43 mM DTT, 5% glycerol, 0.04 mg/mL poly(dI-dC), 3.06 mM EDTA, 10 uL, 30 min at 25 C, 6% PAGE in TAE pH 8.2
[1] = tested on: T1, PhaR-His6 (Bradyrhizobium diazoefficiens USDA110), ORF:9916d0df; experiment: DNase I footprinting
T1 sequence: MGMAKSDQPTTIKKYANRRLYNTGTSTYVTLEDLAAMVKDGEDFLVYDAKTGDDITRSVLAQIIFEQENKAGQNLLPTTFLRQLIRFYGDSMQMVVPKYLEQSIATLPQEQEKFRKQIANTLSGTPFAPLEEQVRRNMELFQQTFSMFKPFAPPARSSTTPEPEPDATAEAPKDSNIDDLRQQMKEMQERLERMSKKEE

[2] = tested on: T1, PhaR-His6 (Bradyrhizobium diazoefficiens USDA110), ORF:9916d0df; experiment: EMSA
[3] = tested on: PhaR-His6 (Bradyrhizobium diazoefficiens USDA110); experiment: EMSA

CTAAGGTGATGTTCTCAAACGGCTTTTGGCCGCTTGCGGAAGCTGAACACGTCCAGGGAATCAAGGTAGGGGTCCGCGGTTTCCAAAAGCTTAAGGAACCCTTGCGGGAAACCCCGGGAATCTCTTCGGTTTGGATCTAGTTTTTGTGCGACGCACAAGATTCTTGACTTTTTTGTGCGTTGCACTAATTGTGGGCAGAGTCAGGGAGCCGGGGCTTCCCGACGCGAGCCAGGGAAAAGGATTCCGAAATGTTCAAGGTTGAAGACTTTCAGAGCTACGGGAAAGAGCAGTTC (double strand) [FAM-phaP1 promoter (footprint)]
binding [1]: binds

CTCTCACTTGCAAGACGCTGAGAACGGGAACCCGGCGGCCGATGCCGCAGGGCGGGAAGAGTACGCAACGCAACAAAATAAGCATTTTCAAAGGGGTCACGCTACCGTTTTGTGCGCCACGGTTAATCGGGCAGCAAAAACGT (double strand) [phaR promoter]
K half [2]: 110 nM

ppc promoter
K half ([3]; about half of DNA shifted only at highest concentration): 110 nM

CACAAGATGATGCTCGATCACTACCAGCAGACCAAGAATCTCCTGGTCAGCTACAGCCCGAAGAAGCTCGGCTTCTTCTGATCGGAACAGGAGCGGGCGGCGCCGTTCTGGCGCCGCTCGTTCCGGTAAACGGGACCTGGCCCGCACGGCGTTAGATTTGTTGCCTGATCAGCGCCAAAGATTTTCCAATATTTCGATCACGTTGCAGTGCGGCATAATGAATGTCGTGTCATGCCGCCGCGGTGCTTTCCAAGGGTGTTTGACTTGGGTTAGAGAGGACGAAAGTTTTCTCTGACCCGG (double strand) [pdhA promoter]
binding [2]: binds more weakly

phaR promoter
K half ([3]; half of DNA in complex at highest concentration): 110 nM
